The target in assay [1] is T1, human CD3 (on Jurkat T cells or human CD8+ T cells) (human, UniProt P07766 23-207; P09693 23-182; P04234 22-171; P20963 22-164).
T1 construct: Entries are printed with signal peptides; also called huCD3; CD3ε
Description: flow cytometry, Jurkat T cells. The method, then: (§1) After washing twice with 200 μL of phosphate buffered saline (PBS) by centrifugation at 500×g for 5 minutes at room temperature, the cells were resuspended in 100 μL of Live/Dead fixable green working buffer (ThermoFisher Scientific, Cat No: L23101; one vial of Live/Dead fixable green powder was dissolved into 50 μL of DMSO and 1 μL of dissolved Live/Dead fixable green was added to 1 mL of PBS to prepare the working buffer). After 15-minutes of incubation at room temperature, the cells were washed twice with 200 μL of PBS by centrifugation at 500×g for 5 minutes at room temperature and resuspended in […] of 10% goat serum in BD staining buffer (BD Biosciences, Cat No: 554657). […] The plates were then covered with foil to avoid direct light and incubated for 60 minutes at 4° C. […] After incubating for 30 minutes at 4° C., the cells were washed twice with 200 μL of PBS by centrifugation at 500×g for 5 minutes at room temperature and resuspended into 100 μL of fixation buffer (BioLegend, Cat No: 420801). The samples were then analyzed on a flow cytometer for binding signal using FlowJo software. ROR and CD3 binding EC₅₀s (concentration vs mean fluorescence intensity (MFI)) for reference molecules and test bispecific TCEs were obtained using 4-parameter non-linear regression curve fitting in GraphPad Prism.

For assay [2], the target named is T2, human ROR1 (on cells) (human, UniProt Q01973 30-937). Kind of assay: cell-based or functional assay.
Assay [3] has as its target T2, human ROR1 (on cells). Kind of assay: cell-based or functional assay. The source holds these as a separate data set.
For assay [4], the target named is T2, human ROR1 (on cells). Description: cell-based or functional assay. This is another data set of the same source.
Assay [5] deals with T3, cynomolgus CD3 (on cynomolgus pan-T cells) (cynomolgus, UniProt Q95LI5 22-198).
T3 construct: whole, on cells
T3 sequence (Q95LI5 22-198): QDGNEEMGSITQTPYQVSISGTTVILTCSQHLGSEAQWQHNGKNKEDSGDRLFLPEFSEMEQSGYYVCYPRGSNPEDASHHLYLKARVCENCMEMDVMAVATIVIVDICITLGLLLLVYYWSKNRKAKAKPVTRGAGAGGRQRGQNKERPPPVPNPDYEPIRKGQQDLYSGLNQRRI
Description: flow cytometry, cynomolgus pan-T cells. The method, then:
as §1

The target in assay [6] is T2, human ROR1 (on cells). Description: flow cytometry, MDA-MB-231 cells; reference: Ref. Frz-binding TCE. The procedure:
as §1

For assay [7], the target named is T2, human ROR1 (on cells). Kind of assay: flow cytometry, MDA-MB-231 cells. The procedure: as §1
Assay [8] deals with T2, human ROR1 (on cells). Kind of assay: cell-based or functional assay. The source holds these as a separate data set.
Assay [9] has as its target T1, human CD3 (on Jurkat T cells or human …). Description: flow cytometry; reference: 69A02 TCE in Format 1A. The procedure: The plates were then covered with foil to avoid direct light and incubated for 60 minutes at 4° C. […] After incubating for 30 minutes at 4° C., the cells were washed twice with 200 μL of PBS by centrifugation at 500×g for 5 minutes at room temperature and resuspended into 100 μL of fixation buffer (BioLegend, Cat No: 420801). The samples were then analyzed on a flow cytometer for binding signal using FlowJo software. ROR and CD3 binding EC₅₀s (concentration vs mean fluorescence intensity (MFI)) for reference molecules and test bispecific TCEs were obtained using 4-parameter non-linear regression curve fitting in GraphPad Prism.

In assay [10] the target is T2, human ROR1 (on cells). Kind of assay: flow cytometry competition on NCCIT cells: pre-treatment with titrated unlabelled scFv-Fc, then 146 nM 82H02 scFv-Fc labelled with Alexa Fluor 647-conjugated Zenon fragments.

T1 sequence (P07766 23-207 limits assumed, chain 1 of 4): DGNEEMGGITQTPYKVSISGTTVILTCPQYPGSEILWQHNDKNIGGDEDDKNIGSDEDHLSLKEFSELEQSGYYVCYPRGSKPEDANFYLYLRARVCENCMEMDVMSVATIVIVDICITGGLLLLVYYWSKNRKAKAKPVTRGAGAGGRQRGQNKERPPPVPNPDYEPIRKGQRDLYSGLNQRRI
T1 sequence (P09693 23-182 limits assumed, chain 2 of 4): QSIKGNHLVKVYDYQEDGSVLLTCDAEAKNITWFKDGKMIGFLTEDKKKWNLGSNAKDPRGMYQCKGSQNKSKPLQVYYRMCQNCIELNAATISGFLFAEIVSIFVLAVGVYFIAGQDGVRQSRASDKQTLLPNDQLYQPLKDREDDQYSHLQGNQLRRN
T1 sequence (P04234 22-171 limits assumed, chain 3 of 4): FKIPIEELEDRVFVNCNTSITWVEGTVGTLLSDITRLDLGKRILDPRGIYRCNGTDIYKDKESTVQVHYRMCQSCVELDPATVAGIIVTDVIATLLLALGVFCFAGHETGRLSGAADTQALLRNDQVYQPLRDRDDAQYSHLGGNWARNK
T1 sequence (P20963 22-164 limits assumed, chain 4 of 4): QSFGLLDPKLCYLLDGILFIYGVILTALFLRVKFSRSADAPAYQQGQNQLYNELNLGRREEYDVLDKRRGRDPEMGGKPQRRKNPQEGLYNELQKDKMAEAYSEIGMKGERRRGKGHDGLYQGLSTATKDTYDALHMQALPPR

B1: bispecific TCE 69A02 in Format 1A (bispecific antibody)
heavy 1: EVQLVESGGGLVQPGGSLRLSCAASGFTFNTYAMNWVRQAPGKGLEWVARIRSKYNNYATYYADSVKDRFTISRDDSKNTLYLQMNSLRAEDTAVYYCVRHGNFGNSYVSWFAYWGQGTMVTVSSASTKGPSVFPLAPSSKSTSGGTAALGCLVKDYFPEPVTVSWNSGALTSGVHTFPAVLQSSGLYSLSSVVTVPSSSLGTQTYICNVNHKPSNTKVDKKVEPKSCDKTHTCPPCPAPPVAGPSVFLFPPKPKDTLMISRTPEVTCVVVDVSHEDPEVKFNWYVDGVEVHNAKTKPREEQYNSTYRVVSVLTVLHQDWLNGKEYKCAVSNKALAAPIEKTISKAKGQPFRPEVHLLPPSREEMTKNQVSLTCLARGFYPKDIAVEWESNGQPENNYKTTPSRQEPSQGTTTFAVTSKLTVDKSRWQQGNVFSCSVMHEALHNHYTQKTISLSPGK
heavy 2: ETTLTQSPATLSVSPGETATLSCRASQSVSSNLAWYQQKPGQAPRLLIYGASTRATGIPATFSGSGSGTEFTLTISSLQSEDFAIYYCQQYKNWPPAFGGGTELEIKGGGGSGGGGSGGGGSGGGGSQVTLKESGPTLVKPTQTLTLTCSFSGFSITTSGVSVGWIRQPPGKALEWLALIYWDDDKRYSPSLKSRLTITRDTSKNQVVLTMTNMDPVDTATYYCAHAPRYTPGGYFDYWGQGTLVTVSSEPKSSDKTHTCPPCPAPPVAGPSVFLFPPKPKDTLMISRTPEVTCVVVDVSHEDPEVKFNWYVDGVEVHNAKTKPREEQYNSTYRVVSVLTVLHQDWLNGKEYKCAVSNKALAAPIEKTISKAKGQPREPQVYTLPPPSEELALNELVTLTCLVKGFYPSDIAVEWLQGSQELPREKYLTWAPVLDSDGSFFLYSILRVAAEDWKKGDTFSCSVMHEALHNRFTQKSLDRSPGKGGGGSGGGGSGGGGSGGGGSETTLTQSPATLSVSPGETATLSCRASQSVSSNLAWYQQKPGQAPRLLIYGASTRATGIPATFSGSGSGTEFTLTISSLQSEDFAIYYCQQYKNWPPAFGGGTELEIKGGGGSGGGGSGGGGSGGGGSQVTLKESGPTLVKPTQTLTLTCSFSGFSITTSGVSVGWIRQPPGKALEWLALIYWDDDKRYSPSLKSRLTITRDTSKNQVVLTMTNMDPVDTATYYCAHAPRYTPGGYFDYWGQGTLVTVSS
light: QAVVTQEPSLTVSPGGTVTLTCRSSTGAVTTSNYANWVQQKPGQAPRGLIGGTNKRAPGTPARFSGSLLGGKAALTLSGVQPEDEAEYYCALWYSNLWVFGGGTKLTVLGQPKAAPSVTLFPPSSEELQANKATLVCLISDFYPGAVTVAWKADSSPVKAGVETTTPSKQSNNKYAASSYLSLTPEQWKSHRSYSCQVTHEGSTVEKTVAPTECS
notes: also called 69A02 TCE 1A; 69A02x1F3.5
On to B1, for which the EC50 in assay [1] stood at 10.4 nM; in assay [5], 13.4 nM; with human ROR1 (on cells) [7], 0.23 nM. Moreover, in the assay with human ROR1 (on cells) [2], the “EC50 of IFNγ release, human CD8+ T cells + ROR1+ MDA-MB-231” value turned out to be 0.0215 nM. The “TDCC EC50, PBMCs + ROR1+ MDA-MB-231 cells” value with human ROR1 (on cells) [3] was found to be 0.0194 nM. Further, the “IFNγ release EC50, PBMCs + ROR1+ MDA-MB-231 cells” value with human ROR1 (on cells) [4] was 0.0876 nM. Also, the “fold higher apparent binding affinity” value with human ROR1 (on cells) [6] was greater than 30 fold. Also, the “EC50 of target cell killing (TDCC), human CD8+ T cells + ROR1+ MDA-MB-231” value with human ROR1 (on cells) [8] came to 0.0202 nM.

B2: bispecific TCE 69A02 in Format 1B (bispecific antibody)
heavy 1: ETTLTQSPATLSVSPGETATLSCRASQSVSSNLAWYQQKPGQAPRLLIYGASTRATGIPATFSGSGSGTEFTLTISSLQSEDFAIYYCQQYKNWPPAFGGGTELEIKGGGGSGGGGSGGGGSGGGGSQVTLKESGPTLVKPTQTLTLTCSFSGFSITTSGVSVGWIRQPPGKALEWLALIYWDDDKRYSPSLKSRLTITRDTSKNQVVLTMTNMDPVDTATYYCAHAPRYTPGGYFDYWGQGTLVTVSSEPKSSDKTHTCPPCPAPPVAGPSVFLFPPKPKDTLMISRTPEVTCVVVDVSHEDPEVKFNWYVDGVEVHNAKTKPREEQYNSTYRVVSVLTVLHQDWLNGKEYKCAVSNKALAAPIEKTISKAKGQPFRPEVHLLPPSREEMTKNQVSLTCLARGFYPKDIAVEWESNGQPENNYKTTPSRQEPSQGTTTFAVTSKLTVDKSRWQQGNVFSCSVMHEALHNHYTQKTISLSPGKGGGGSGGGGSGGGGSGGGGSEVQLVESGGGLVQPGGSLRLSCAASGFTFNTYAMNWVRQAPGKGLEWVARIRSKYNNYATYYADSVKDRFTISRDDSKNTLYLQMNSLRAEDTAVYYCVRHGNFGNSYVSWFAYWGQGTMVTVSSASTKGPSVFPLAPSSKSTSGGTAALGCLVKDYFPEPVTVSWNSGALTSGVHTFPAVLQSSGLYSLSSVVTVPSSSLGTQTYICNVNHKPSNTKVDKKVEPKSS
heavy 2: ETTLTQSPATLSVSPGETATLSCRASQSVSSNLAWYQQKPGQAPRLLIYGASTRATGIPATFSGSGSGTEFTLTISSLQSEDFAIYYCQQYKNWPPAFGGGTELEIKGGGGSGGGGSGGGGSGGGGSQVTLKESGPTLVKPTQTLTLTCSFSGFSITTSGVSVGWIRQPPGKALEWLALIYWDDDKRYSPSLKSRLTITRDTSKNQVVLTMTNMDPVDTATYYCAHAPRYTPGGYFDYWGQGTLVTVSSEPKSSDKTHTCPPCPAPPVAGPSVFLFPPKPKDTLMISRTPEVTCVVVDVSHEDPEVKFNWYVDGVEVHNAKTKPREEQYNSTYRVVSVLTVLHQDWLNGKEYKCAVSNKALAAPIEKTISKAKGQPREPQVYTLPPPSEELALNELVTLTCLVKGFYPSDIAVEWLQGSQELPREKYLTWAPVLDSDGSFFLYSILRVAAEDWKKGDTFSCSVMHEALHNRFTQKSLDRSPGK
light: B1 light
notes: also called 69A02 TCE 1B; 1B_69A02x1F3.5 (1B)
As to B2, the EC50 in assay [1] is 35.9 nM; in [5] it was 17.6 nM; in the assay with human ROR1 (on cells) [7], 0.43 nM. Further, the “EC50 of IFNγ release, human CD8+ T cells + ROR1+ MDA-MB-231” value with human ROR1 (on cells) [2] is 0.0289 nM. In addition, the “fold lower apparent binding affinity” value in assay [9] is roughly 4 fold. The “TDCC EC50, PBMCs + ROR1+ MDA-MB-231 cells” value with human ROR1 (on cells) [3] is 0.048 nM. The “IFNγ release EC50, PBMCs + ROR1+ MDA-MB-231 cells” value with human ROR1 (on cells) [4] stood at 2.09 nM. Moreover, the “fold higher apparent binding affinity” value with human ROR1 (on cells) [6] is greater than 30 fold. Besides, in the assay with human ROR1 (on cells) [8], the “EC50 of target cell killing (TDCC), human CD8+ T cells + ROR1+ MDA-MB-231” value is 0.0356 nM.

B3: 82H02 scFv-Fc (Fc fusion)
VH: EVQLLESGGGLVQPGGSLRLSCAASGFTFTSYAMSWVRQAPGKGLEWVSTISGSGGGTYYTDSVKGRFTISRDNSKNTLYLQMNSLRAEDTAVYYCAQGSSIFDYWGQGTLVTVSS
VL: EIVLTQSPATLSLSPGERATLSCRASQSVSSYLAWYQQKPGQAPRLLIYDASNRATGIPARFSGSGSGTDFTLTISSLEPEDFAVYYCQQRSNWPPCTFGQGTRLEIK
notes: scFv-Fc format; also called unlabelled 82H02 scFv-Fc
On to B3, for which, in the assay with human ROR1 (on cells) [10], the “IC50 (read off the curve)” value was roughly 2 nM.

Values taken from patent US20240343800A1 (Merck KGaA, published 2024).
